Data taken from article PMC7336386, “Methylation of MdMYB1 locus mediated by RdDM pathway regulates anthocyanin biosynthesis in apple”.

T1: MdAGO4-1 (Malus domestica? (apple), UniProt A0A498JG28 46-911)
T1 sequence: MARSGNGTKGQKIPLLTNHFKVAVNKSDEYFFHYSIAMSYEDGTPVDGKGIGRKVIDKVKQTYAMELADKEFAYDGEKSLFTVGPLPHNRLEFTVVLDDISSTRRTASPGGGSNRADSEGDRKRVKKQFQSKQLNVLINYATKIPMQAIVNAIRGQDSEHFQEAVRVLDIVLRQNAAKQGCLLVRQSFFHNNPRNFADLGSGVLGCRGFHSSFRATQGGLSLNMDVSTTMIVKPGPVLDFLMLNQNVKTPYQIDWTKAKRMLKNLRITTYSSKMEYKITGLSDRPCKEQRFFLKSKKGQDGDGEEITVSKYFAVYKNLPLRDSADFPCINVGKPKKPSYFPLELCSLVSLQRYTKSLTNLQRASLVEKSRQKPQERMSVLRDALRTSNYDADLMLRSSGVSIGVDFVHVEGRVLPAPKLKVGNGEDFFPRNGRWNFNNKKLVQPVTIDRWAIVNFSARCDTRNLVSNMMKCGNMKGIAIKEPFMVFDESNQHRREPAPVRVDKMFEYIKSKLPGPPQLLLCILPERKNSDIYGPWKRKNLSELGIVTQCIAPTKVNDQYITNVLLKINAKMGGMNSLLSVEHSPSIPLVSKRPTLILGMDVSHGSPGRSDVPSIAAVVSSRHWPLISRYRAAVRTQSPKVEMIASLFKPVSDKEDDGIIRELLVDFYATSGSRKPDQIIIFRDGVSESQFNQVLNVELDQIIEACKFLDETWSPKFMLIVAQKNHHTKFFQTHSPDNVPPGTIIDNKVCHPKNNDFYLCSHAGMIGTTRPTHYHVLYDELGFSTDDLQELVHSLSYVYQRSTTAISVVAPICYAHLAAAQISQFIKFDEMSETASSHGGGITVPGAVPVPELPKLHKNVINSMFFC

T2: MdAGO4-1 without PAZ domain (Malus domestica? (apple), UniProt A0A498JG28 46-274+435-911, internal_change)
T2 sequence: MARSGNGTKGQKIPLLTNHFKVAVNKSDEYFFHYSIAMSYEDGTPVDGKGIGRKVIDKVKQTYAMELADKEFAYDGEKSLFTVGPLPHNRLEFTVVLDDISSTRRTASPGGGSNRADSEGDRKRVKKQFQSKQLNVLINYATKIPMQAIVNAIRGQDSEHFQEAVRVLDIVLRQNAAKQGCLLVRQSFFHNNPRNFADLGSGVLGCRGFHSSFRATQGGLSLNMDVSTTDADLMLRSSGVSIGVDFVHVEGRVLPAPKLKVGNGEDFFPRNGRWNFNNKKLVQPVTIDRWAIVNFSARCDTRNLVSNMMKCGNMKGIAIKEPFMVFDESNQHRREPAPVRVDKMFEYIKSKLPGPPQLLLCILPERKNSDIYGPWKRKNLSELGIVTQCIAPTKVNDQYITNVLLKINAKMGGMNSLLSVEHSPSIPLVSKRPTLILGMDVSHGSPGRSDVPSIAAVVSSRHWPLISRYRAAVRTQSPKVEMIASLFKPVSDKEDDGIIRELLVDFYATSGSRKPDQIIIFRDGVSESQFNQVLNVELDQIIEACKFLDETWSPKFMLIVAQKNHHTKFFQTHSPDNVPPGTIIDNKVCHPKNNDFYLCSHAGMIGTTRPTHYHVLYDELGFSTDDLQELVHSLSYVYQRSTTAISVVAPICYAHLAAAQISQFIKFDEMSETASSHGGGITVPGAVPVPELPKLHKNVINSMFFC

B1: 2-m5 (dsDNA)
DNA 1: TGTCAGTGTTTGCTTCTGTGGATATCAGACATGCACGTCA
DNA 2: TGACGTGCATGTCTGATATCCACAGAAGCAAACACTGACA
B2: 2-m2 (dsDNA)
DNA 1: TGTCAGTGTTGATATCAGACATGCACGTCACTGGCCTT
DNA 2: AAGGCCAGTGACGTGCATGTCTGATATCAACACTGACA
B3: 2-m4 (dsDNA)
DNA 1: TGTCAGTGTTTGCTTCTGTGGATATCAGACCTGGCCTT
DNA 2: AAGGCCAGGTCTGATATCCACAGAAGCAAACACTGACA
B4: 2-m1 (probe2 without m1 region) (dsDNA)
DNA 1: TGCTTCTGTGGATATCAGACATGCACGTCACTGGCCTT
DNA 2: AAGGCCAGTGACGTGCATGTCTGATATCCACAGAAGCA
B5: MdMYB1 probe2 (dsDNA)
DNA 1: TGTCAGTGTTTGCTTCTGTGGATATCAGACATGCACGTCACTGGCCTT
DNA 2: AAGGCCAGTGACGTGCATGTCTGATATCCACAGAAGCAAACACTGACA
B6: 2-m3 (m3 region … not intact) (dsDNA)
DNA 1: TGTCAGTGTTTGCTTCTGTGATGCACGTCACTGGCCTT
DNA 2: AAGGCCAGTGACGTGCATCACAGAAGCAAACACTGACA
B7: MdFLS probe (dsDNA)
DNA 1: GTAAAGGGAGTGTGACCATAATATCAGATACACAAACGTCCAAAGCCC
DNA 2: GGGCTTTGGACGTTTGTGTATCTGATATTATGGTCACACTCCCTTTAC
B8: MdGST probe (dsDNA)
DNA 1: TTTTTTATTAAATAAAAAAAGATATCATGCGACAAACATTTATTAAATTG
DNA 2: CAATTTAATAAATGTTTGTCGCATGATATCTTTTTTTATTTAATAAAAAA

Target: T1, MdAGO4-1
Test: EMSA; LightShift Chemiluminescent EMSA Kit (Thermo); buffer, salt, pH and temperature not stated
Conditions: protein: recombinant; tags: His (pET32a)

Q: Does B1 bind?
A: binds

Q: Does B2 bind?
A: binds

Q: Does B3 bind?
A: binds

Q: Does B4 bind?
A: binds

Q: Does B5 bind?
A: binds

Q: Does B6 bind?
A: no binding

Same assay, conditions: protein: recombinant; tags: His (pET32a); blunt

Q: Does B7 bind?
A: binds

Q: Does B8 bind?
A: no binding

Target: T2, MdAGO4-1 without PAZ domain
Test: as above
Conditions: protein: recombinant

Q: Does B5 bind?
A: binds
